Results on six sequences are retold here after the supplement of paper PMC5998384.

For series [1], the system named is HeLa Kyoto. Briefly: thermal stability score vs G1/S (z-score of summed log2 fold changes over temperatures); higher = more thermally stable than in G1/S.
Series [2] relates to HeLa Kyoto. Description: solubility in G1/S (NP-40 vs SDS abundance) (log2 ratio); higher = more soluble. Conditions: cell cycle stage: G1/S.
Series [3] deals with HeLa Kyoto. Description: melting temperature (median over replicates), in situ; higher = more thermally stable.
Series [4] concerns HeLa Kyoto. Briefly: solubility change mitosis vs G1/S (difference of NP-40 vs SDS log2 ratios) (log2 ratio difference); higher = more soluble in mitosis.
Where [5] appears, read: cell cycle stage: early G1 (4.5 h after nocodazole release).
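For melting temperature (median over replicates), in situ in this document: HeLa Kyoto cells synchronized by double thymidine or nocodazole block, proteins quantified by TMT10plex mass spectrometry, three independent biological replicates.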
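For solubility change mitosis vs G1/S (difference of NP-40 vs SDS log2 ratios) in this document: synchronized HeLa Kyoto cells (double thymidine block for G1/S, nocodazole release for mitosis), protein amounts in NP-40 versus SDS lysates quantified by mass spectrometry, three biological replicates.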
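For solubility in G1/S (NP-40 vs SDS abundance) in this document: HeLa Kyoto cells arrested at G1/S by double thymidine block, proteins quantified by TMT10plex mass spectrometry in mild NP-40 versus SDS extracts, three biological replicates.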
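For thermal stability score vs G1/S (z-score of summed log2 fold changes over temperatures) in this document: synchronized HeLa Kyoto cells, proteins quantified by TMT10plex mass spectrometry, three biological replicates, mitosis taken 0.5 h after nocodazole release, G1/S directly after double thymidine block.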

Turning to “MLRRILQRTPGRVGSQGSDLDSSATPINTVDVNNESSSEGFICPQCMKSLGSADELFKHYEAVHDAGNDSGHGGESNLALKRDDVTLLRQEVQDLQASLKEEKWYSEELKKELEKYQGLQQQEAKPDGLVTDSSAELQSLEQQLEEAQTENFNIKQMKDLFEQKAAQLATEIADIKSKYDEERSLREAAEQKVTRLTEELNKEATVIQDLKTELLQRPGIEDVAVLKKELVQVQTLMDNMTLERERESEKLKDECKKLQSQYASSEATISQLRSELAKGPQEVAVYVQELQKLKSSVNELTQKNQTLTENLLKKEQDYTKLEEKHNEESVSKKNIQATLHQKDLDCQQLQSRLSASETSLHRIHVELSEKGEATQKLKEELSEVETKYQHLKAEFKQLQQQREEKEQHGLQLQSEINQLHSKLLETERQLGEAHGRLKEQRQLSSEKLMDKEQQVADLQLKLSRLEEQLKEKVTNSTELQHQLDKTKQQHQEQQALQQSTTAKLREAQNDLEQVLRQIGDKDQKIQNLEALLQKSKENISLLEKEREDLYAKIQAGEGETAVLNQLQEKNHTLQEQVTQLTEKLKNQSESHKQAQENLHDQVQEQKAHLRAAQDRVLSLETSVNELNSQLNESKEKVSQLDIQIKAKTELLLSAEAAKTAQRADLQNHLDTAQNALQDKQQELNKITTQLDQVTAKLQDKQEHCSQLESHLKEYKEKYLSLEQKTEELEGQIKKLEADSLEVKASKEQALQDLQQQRQLNTDLELRATELSKQLEMEKEIVSSTRLDLQKKSEALESIKQKLTKQEEEKKILKQDFETLSQETKIQHEELNNRIQTTVTELQKVKMEKEALMTELSTVKDKLSKVSDSLKNSKSEFEKENQKGKAAILDLEKTCKELKHQLQVQMENTLKEQKELKKSLEKEKEASHQLKLELNSMQEQLIQAQNTLKQNEKEEQQLQGNINELKQSSEQKKKQIEALQGELKIAVLQKTELENKLQQQLTQAAQELAAEKEKISVLQNNYEKSQETFKQLQSDFYGRESELLATRQDLKSVEEKLSLAQEDLISNRNQIGNQNKLIQELKTAKATLEQDSAKKEQQLQERCKALQDIQKEKSLKEKELVNEKSKLAEIEEIKCRQEKEITKLNEELKSHKLESIKEITNLKDAKQLLIQQKLELQGKADSLKAAVEQEKRNQQILKDQVKKEEEELKKEFIEKEAKLHSEIKEKEVGMKKHEENEAKLTMQITALNENLGTVKKEWQSSQRRVSELEKQTDDLRGEIAVLEATVQNNQDERRALLERCLKGEGEIEKLQTKVLELQRKLDNTTAAVQELGRENQSLQIKHTQALNRKWAEDNEVQNCMACGKGFSVTVRRHHCRQCGNIFCAECSAKNALTPSSKKPVRVCDACFNDLQG [EEA1]”, the thermal stability score is -3.01 in the series on HeLa Kyoto [1] (setting [5]) and -4.2 in the series on HeLa Kyoto [1] (cell cycle stage: mitosis). The “solubility in G1/S (log2)” value in the series on HeLa Kyoto [2] worked out at 0.678. Further, the figures for the melting temperature in the series on HeLa Kyoto [3] (cell cycle stage: G1/S) and in the series with HeLa Kyoto [3] (cell cycle stage: mitosis) were 57.3 °C and 58 °C, respectively. In the series on HeLa Kyoto [4], the “solubility change mitosis (log2)” value came to 0.0149.

Take “MLRRRGSPGMGVHVGAALGALWFCLTGALEVQVPEDPVVALVGTDATLCCSFSPEPGFSLAQLNLIWQLTDTKQLVHSFAEGQDQGSAYANRTALFPDLLAQGNASLRLQRVRVADEGSFTCFVSIRDFGSAAVSLQVAAPYSKPSMTLEPNKDLRPGDTVTITCSSYQGYPEAEVFWQDGQGVPLTGNVTTSQMANEQGLFDVHSILRVVLGANGTYSCLVRNPVLQQDAHSSVTITPQRSPTGAVEVQVPEDPVVALVGTDATLRCSFSPEPGFSLAQLNLIWQLTDTKQLVHSFTEGRDQGSAYANRTALFPDLLAQGNASLRLQRVRVADEGSFTCFVSIRDFGSAAVSLQVAAPYSKPSMTLEPNKDLRPGDTVTITCSSYRGYPEAEVFWQDGQGVPLTGNVTTSQMANEQGLFDVHSVLRVVLGANGTYSCLVRNPVLQQDAHGSVTITGQPMTFPPEALWVTVGLSVCLIALLVALAFVCWRKIKQSCEEENAGAEDQDGEGEGSKTALQPLKHSDSKEDDGQEIA [CD276]”: the thermal stability score is -2.08 in the series on HeLa Kyoto [1] (setting [5]) and -3.76 in the series with HeLa Kyoto [1] (cell cycle stage: mitosis). For the same sequence, the “solubility in G1/S (log2)” value in the series with HeLa Kyoto [2] was determined as 0.244. The melting temperature amounted to 59 °C with HeLa Kyoto [3] (cell cycle stage: G1/S) and 57.1 °C with HeLa Kyoto [3] (cell cycle stage: mitosis). For the same sequence, the “solubility change mitosis (log2)” value in the series with HeLa Kyoto [4] is -0.0859.

For “MLRSVWNFLKRHKKKCIFLGTVLGGVYILGKYGQKKIREIQEREAAEYIAQARRQYHFESNQRTCNMTVLSMLPTLREALMQQLNSESLTALLKNRPSNKLEIWEDLKIISFTRSTVAVYSTCMLVVLLRVQLNIIGGYIYLDNAAVGKNGTTILAPPDVQQQYLSSIQHLLGDGLTELITVIKQAVQKVLGSVSLKHSLSLLDLEQKLKEIRNLVEQHKSSSWINKDGSKPLLCHYMMPDEETPLAVQACGLSPRDITTIKLLNETRDMLESPDFSTVLNTCLNRGFSRLLDNMAEFFRPTEQDLQHGNSMNSLSSVSLPLAKIIPIVNGQIHSVCSETPSHFVQDLLTMEQVKDFAANVYEAFSTPQQLEK [PEX3]”, the thermal stability score in the series on HeLa Kyoto [1] (setting [5]) was 0.401; with HeLa Kyoto [1] (cell cycle stage: mitosis) it was 0.184. Moreover, the “solubility in G1/S (log2)” value in the series on HeLa Kyoto [2] stood at 0.0923. The melting temperature in the series on HeLa Kyoto [3] (cell cycle stage: G1/S) came to 50 °C; in the series on HeLa Kyoto [3] (cell cycle stage: mitosis) it was 49 °C. The “solubility change mitosis (log2)” value in the series on HeLa Kyoto [4] is -0.208.

For the sequence “MLRWLIGGGREPQGLAEKSPLQTIGEEQTQNPYTELLVLKAHHDIVRFLVQLDDYRFASAGDDGIVVVWNAQTGEKLLELNGHTQKITAIITFPSLESCEEKNQLILTASADRTVIVWDGDTTRQVQRISCFQSTVKCLTVLQRLDVWLSGGNDLCVWNRKLDLLCKTSHLSDTGISALVEIPKNCVVAAVGKELIIFRLVAPTEGSLEWDILEVKRLLDHQDNILSLINVNDLSFVTGSHVGELIIWDALDWTMQAYERNFWDPSPQLDTQQEIKLCQKSNDISIHHFTCDEENVFAAVGRGLYVYSLQMKRVIACQKTAHDSNVLHVARLPNRQLISCSEDGSVRIWELREKQQLAAEPVPTGFFNMWGFGRVSKQASQPVKKQQENATSCSLELIGDLIGHSSSVEMFLYFEDHGLVTCSADHLIILWKNGERESGLRSLRLFQKLEENGDLYLAV [WDR41]”, the thermal stability score is -1.29 with HeLa Kyoto [1] (setting [5]) and -1.46 in the series with HeLa Kyoto [1] (cell cycle stage: mitosis). Besides, the “solubility in G1/S (log2)” value with HeLa Kyoto [2] stood at 0.0666. The melting temperature in the series with HeLa Kyoto [3] (cell cycle stage: G1/S) came out at 52.8 °C; with HeLa Kyoto [3] (cell cycle stage: mitosis), 53.4 °C. Further, in the series on HeLa Kyoto [4], the “solubility change mitosis (log2)” value was -0.21.

Turning to “MLSPQRVAAAASRGADDAMESSKPGPVQVVLVQKDQHSFELDEKALASILLQDHIRDLDVVVVSVAGAFRKGKSFILDFMLRYLYSQKESGHSNWLGDPEEPLTGFSWRGGSDPETTGIQIWSEVFTVEKPGGKKVAVVLMDTQGAFDSQSTVKDCATIFALSTMTSSVQIYNLSQNIQEDDLQQLQLFTEYGRLAMDEIFQKPFQTLMFLVRDWSFPYEYSYGLQGGMAFLDKRLQVKEHQHEEIQNVRNHIHSCFSDVTCFLLPHPGLQVATSPDFDGKLKDIAGEFKEQLQALIPYVLNPSKLMEKEINGSKVTCRGLLEYFKAYIKIYQGEDLPHPKSMLQATAEANNLAAAASAKDIYYNNMEEVCGGEKPYLSPDILEEKHCEFKQLALDHFKKTKKMGGKDFSFRYQQELEEEIKELYENFCKHNGSKNVFSTFRTPAVLFTGIVALYIASGLTGFIGLEVVAQLFNCMVGLLLIALLTWGYIRYSGQYRELGGAIDFGAAYVLEQASSHIGNSTQATVRDAVVGRPSMDKKAQ [ATL3]”, the thermal stability score is -0.0896 in the series with HeLa Kyoto [1] (setting [5]) and 0.487 in the series on HeLa Kyoto [1] (cell cycle stage: mitosis). In addition, in the series on HeLa Kyoto [2], the “solubility in G1/S (log2)” value is -0.00471. In addition, the melting temperature in the series with HeLa Kyoto [3] (cell cycle stage: G1/S) is 52.2 °C; in the series with HeLa Kyoto [3] (cell cycle stage: mitosis) it was 51.7 °C. Further, the “solubility change mitosis (log2)” value in the series on HeLa Kyoto [4] was -0.139.

Take “MLSRSRCVSRAFSRSLSAFQKGNCPLGRRSLPGVSLCQGPGYPNSRKVVINNSVFSVRFFRTTAVCKDDLVTVKTPAFAESVTEGDVRWEKAVGDTVAEDEVVCEIETDKTSVQVPSPANGVIEALLVPDGGKVEGGTPLFTLRKTGAAPAKAKPAEAPAAAAPKAEPTAAAVPPPAAPIPTQMPPVPSPSQPPSGKPVSAVKPTVAPPLAEPGAGKGLRSEHREKMNRMRQRIAQRLKEAQNTCAMLTTFNEIDMSNIQEMRARHKEAFLKKHNLKLGFMSAFVKASAFALQEQPVVNAVIDDTTKEVVYRDYIDISVAVATPRGLVVPVIRNVEAMNFADIERTITELGEKARKNELAIEDMDGGTFTISNGGVFGSLFGTPIINPPQSAILGMHGIFDRPVAIGGKVEVRPMMYVALTYDHRLIDGREAVTFLRKIKAAVEDPRVLLLDL [DLST]”: the thermal stability score with HeLa Kyoto [1] (setting [5]) is -2.5; with HeLa Kyoto [1] (cell cycle stage: mitosis), -3.04. Besides, the “solubility in G1/S (log2)” value with HeLa Kyoto [2] was determined as 0.0922. For the same sequence, the melting temperature in the series with HeLa Kyoto [3] (cell cycle stage: G1/S) is 61.7 °C; in the series on HeLa Kyoto [3] (cell cycle stage: mitosis), 65.9 °C. In addition, in the series with HeLa Kyoto [4], the “solubility change mitosis (log2)” value was -0.0493.
